Reference: patent US20170298096A1 (CANIMGUIDE THERAPEUTICS, published 2017)
No end group written: not given here.

T1: His-tagged P3028 (human, not fully specified)
T1 construct: the tag is put first after 'PGE73=His-tag-P3028'; also called PGE73; not shown: His-tag
T1 peptide: {His‑tag}-VFDEFKPLVEEPQNLIK


Biological target: T1, His-tagged P3028
Assay: chip ELISA

| Binder | ELISA signal |
| --- | --- |
| KKLDTFHVKLSLFTER [P28R F7H] | 364 |
| LKLDTFFVKLSLFTER [P28R K1L] | 449 |
| WKLDTFFVKLSLFTER [P28R K1W] | 284 |
| TKLDTFFVKLSLFTER [P28R K1T] | 493 |
| KKLDTFRVKLSLFTER [P28R F7R] | 369 |
| IKLDTFFVKLSLFTER [P28R K1I] | 483 |
| KKLDTFKVKLSLFTER [P28R F7K] | 232 |
| KKLDTFFVKLSLATER [P28R F13A] | 525 |
| KKLDTFFVKLSLSTER [P28R F13S] | 635 |
| KKLDTFQVKLSLFTER [P28R F7Q] | 511 |
| KKLDTFFVKLSLRTER [P28R F13R] | 502 |
| KKLDTFYVKLSLFTER [P28R F7Y] | 334 |
| KKLDTFFVKLSLWTER [P28R F13W] | 430 |
| KKLDTFIVKLSLFTER [P28R F7I] | 446 |
| KKLDTFNVKLSLFTER [P28R F7N] | 348 |
| YKLDTFFVKLSLFTER [P28R K1Y] | 315 |
| FKLDTFFVKLSLFTER [P28R K1F] | 332 |
| NKLDTFFVKLSLFTER [P28R K1N] | 445 |
| KKLDTFFVKLSLMTER [P28R F13M] | 1190 |
| SKLDTFFVKLSLFTER [P28R K1S] | 344 |
| MKLDTFFVKLSLFTER [P28R K1M] | 457 |
| KKLDTFFVKLSLTTER [P28R F13T] | 494 |
| KKLDTFWVKLSLFTER [P28R F7W] | 380 |

| Binder | ELISA signal |
| --- | --- |
| QKLDTFFVKLSLFTER [P28R K1Q] | 455 |
| DKLDTFFVKLSLFTER [P28R K1D] | 373 |
| KKLDTFFVKLSLNTER [P28R F13N] | 862 |
| KKLDTFFVKLSLVTER [P28R F13V] | 446 |
| KKLDTFVVKLSLFTER [P28R F7V] | 527 |
| VKLDTFFVKLSLFTER [P28R K1V] | 442 |
| KKLDTFFVKLSLDTER [P28R F13D] | 112 |
| KKLDTFTVKLSLFTER [P28R F7T] | 517 |
| KKLDTFFVKLSLETER [P28R F13E] | 98 |
| EKLDTFFVKLSLFTER [P28R K1E] | 396 |
| KKLDTFFVKLSLKTER [P28R F13K] | 220 |
| KKLDTFMVKLSLFTER [P28R F7M] | 712 |
| HKLDTFFVKLSLFTER [P28R K1H] | 428 |
| KKLDTFFVKLSLHTER [P28R F13H] | 1050 |
| KKLDTFFVKLSLYTER [P28R F13Y] | 291 |
| AKLDTFFVKLSLFTER [P28R K1A] | 466 |
| KKLDTFLVKLSLFTER [P28R F7L] | 517 |
| KALDTFFVKLSLFTER [P28R K2A] | 309 |
| KKLDTFFVKLSLLTER [P28R F13L] | 448 |
| KKLDTFFVKLSLQTER [P28R F13Q] | 1140 |
| RKLDTFFVKLSLFTER [P28R K1R] | 523 |
| KKLDTFSVKLSLFTER [P28R F7S] | 700 |
| KKLDTFFVKLSLITER [P28R F13I] | 468 |

Next, values leading:

| ELISA signal | Binder |
| --- | --- |
| 330 | KKLDTFFVQLSLFTER [P28R K9Q] |
| 174 | KKLDTFFVFLSLFTER [P28R K9F] |
| 335 | KDLDTFFVKLSLFTER [P28R K2D] |
| 301 | KYLDTFFVKLSLFTER [P28R K2Y] |
| 331 | KILDTFFVKLSLFTER [P28R K2I] |
| 149 | KKLDTFFVDLSLFTER [P28R K9D] |
| 306 | KKLDTFFVHLSLFTER [P28R K9H] |
| 349 | KELDTFFVKLSLFTER [P28R K2E] |
| 240 | KKLDTFFVELSLFTER [P28R K9E] |
| 343 | KLLDTFFVKLSLFTER [P28R K2L] |
| 390 | KFLDTFFVKLSLFTER [P28R K2F] |
| 432 | KNLDTFFVKLSLFTER [P28R K2N] |
| 256 | KKLDTFFVNLSLFTER [P28R K9N] |
| 166 | KKLDTFFVLLSLFTER [P28R K9L] |
| 283 | KKLDTFFVMLSLFTER [P28R K9M] |
| 317 | KVLDTFFVKLSLFTER [P28R K2V] |
| 417 | KRLDTFFVKLSLFTER [P28R K2R] |
| 281 | KSLDTFFVKLSLFTER [P28R K2S] |
| 191 | KKLDTFFVALSLFTER [P28R K9A] |
| 304 | KWLDTFFVKLSLFTER [P28R K2W] |
| 190 | KKLDTFFVILSLFTER [P28R K9I] |
| 394 | KHLDTFFVKLSLFTER [P28R K2H] |
| 350 | KQLDTFFVKLSLFTER [P28R K2Q] |
| 400 | KMLDTFFVKLSLFTER [P28R K2M] |
| 331 | KTLDTFFVKLSLFTER [P28R K2T] |
